Source: PMC11417995 (2024)

Target: ubiquitin (Homo sapiens, UniProt P0CG47)
Test: PPI-CONA

B1: CDC34A (protein)
chain: MARPLVPSSQKALLLELKGLQEEPVEGFRVTLVDEGDLYNWEVAIFGPPNTYYEGGYFKARLKFPIDYPYSPPAFRFLTKMWHPNIYETGDVCISILHPPVDDPQSGELPSERWNPTQNVRTILLSVISLLNEPNTFSPANVDASVMYRKWKESKGKDREYTDIIRKQVLGTKVDAERDGVKVPTTLAEYCVKTKAPAPDEGSDLFYDDYYEDGEVEEEADSCFGDDEDDSGTEES
modifications: CC0651
  Kd: 12.2 µM
